How the values were obtained:
[1] = molecular target: rice RAD51A2 (japonica cultivar Nipponbare), His6 tag removed (Oryza sativa (japonica cultivar Nipponbare)); assay: SEC; Superdex 200 GL 10/300; 70 µg protein incubated 30 min at room temperature without nucleotide (the printed oligomer sizes), with 1 mM ATP (apparent sizes drastically increased) or with 1 mM ADP (no such change); elution in 20 mM HEPES-NaOH pH 7.5, 400 mM NaCl, 0.1 mM EDTA, 2 mM 2-mercaptoethanol, 1 mM MgCl2; apparent molecular sizes
[2] = molecular target: rice RAD51A1 (japonica cultivar Nipponbare), His6 tag removed (Oryza sativa (japonica cultivar Nipponbare)); assay: as above

Q: With “rice RAD51A2 (japonica cultivar Nipponbare), His6 tag removed (natural protein)” as the substance, how does the stoichiometry N [1] read?
A: 5 -mer

Q: For “rice RAD51A1 (japonica cultivar Nipponbare), His6 tag removed (natural protein)”, which stoichiometry N [2] is on record?
A: 8 -mer

Reference: article PMC3790826
